T1: FcγRIIb extracellular domain with C-terminal His tag (human, UniProt P31994 43-217)
T1 construct: extracellular domain; also called 2b; FcgRIIb; not shown: His tag at the C terminus
T1 sequence (looked up): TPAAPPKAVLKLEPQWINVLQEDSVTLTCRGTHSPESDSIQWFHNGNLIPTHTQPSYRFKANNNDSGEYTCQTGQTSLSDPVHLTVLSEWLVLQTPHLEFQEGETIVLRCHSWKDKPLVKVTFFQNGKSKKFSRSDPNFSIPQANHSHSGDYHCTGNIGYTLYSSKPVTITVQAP

T2: FcγRIIa H (human, UniProt P12318 34-217)
T2 construct: extracellular domain; also called FcgRIIa H; FcγRIIa type H
T2 sequence (looked up): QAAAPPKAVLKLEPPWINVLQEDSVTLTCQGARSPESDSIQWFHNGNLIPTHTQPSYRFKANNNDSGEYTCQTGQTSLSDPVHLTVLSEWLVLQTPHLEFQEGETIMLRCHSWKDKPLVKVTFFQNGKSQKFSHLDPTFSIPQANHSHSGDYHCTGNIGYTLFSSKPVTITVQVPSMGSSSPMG

T3: FcγRIIb (human, UniProt P31994 43-217)
T3 construct: extracellular domain; also called FcgRIIb; 2b
T3 sequence (looked up): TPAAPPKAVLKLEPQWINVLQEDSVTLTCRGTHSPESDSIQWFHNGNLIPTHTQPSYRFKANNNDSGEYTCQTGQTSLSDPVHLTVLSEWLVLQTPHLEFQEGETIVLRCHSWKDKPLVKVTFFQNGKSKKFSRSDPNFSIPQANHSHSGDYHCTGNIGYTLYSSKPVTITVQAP


Experiments:
[1] = molecular target: T4, FcγRIIIa extracellular domain with C-terminal His tag (human, UniProt P08637 17-208); test: SPR (Biacore), relative to GpH7-A5/GpH7-B3/GpL16-k0 = 100
T4 construct: extracellular domain; also called 3a; FcgRIIIa; not shown: His tag at the C terminus
T4 sequence (P08637 17-208): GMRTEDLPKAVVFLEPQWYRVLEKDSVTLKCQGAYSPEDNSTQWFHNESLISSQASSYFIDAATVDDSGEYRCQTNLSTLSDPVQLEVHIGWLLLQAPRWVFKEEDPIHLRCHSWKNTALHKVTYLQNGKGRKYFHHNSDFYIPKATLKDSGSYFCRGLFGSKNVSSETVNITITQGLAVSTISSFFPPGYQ

[2] = molecular target: T1, FcγRIIb extracellular domain with …; test: as above
[3] = molecular target: T4, FcγRIIIa extracellular domain with …; test: SPR (Biacore); ratio of He/Con_3a (FcγRIIIa) to He/Con_2b (FcγRIIb)
FcγRIIa H [4] = molecular target: T2, FcγRIIa H; test: SPR (Biacore); He/Con_2aH divided by He/Con_2b (FcγRIIa H over FcγRIIb)
FcγRIIa H [5] = molecular target: T2, FcγRIIa H; test: SPR (Biacore), antibody captured, FcγR analyte; binding relative to GpH7-A5/GpH7-B3/GpL16-k0 = 100
FcγRIIb = molecular target: T3, FcγRIIb; test: as above

Binder | He/Con_3a [1] | He/Con_2b [2] | He_3a/2b (IIIa/IIb) [3] | He_2aH/2b (IIaH/IIb) (FcγRIIa H [4]) [ratio] | He/Con_2aH (FcγRIIa H [5]) | He/Con_2b (FcγRIIb)
GpH7-A5/GpH7-B3 variant P238_04F/GpL16-k0 (antibody, human IgG1, kappa, Heterodimerized antibody, alteration in one H chain only; also called He Ab P238F) heavy 1: not shown heavy 2: not shown light: DIVMTQSPLSLPVTPGEPASISCQASESLVHSNRNTYLHWYLQKPGQSPQLLIYKVSNRFSGVPDRFSGSGSGTDFTLKISRVEAEDVGVYYCSQNTHVPPTFGQGTKVEIERTVAAPSVFIFPPSDEQLKSGTASVVCLLNNFYPREAKVQWKVDNALQSGNSQESVTEQDSKDSTYSLSSTLTLSKADYEKHKVYACEVTHQGLSSPVTKSFNRGEC | – | – | – | 0.21 | 65.4 % of control | 312 % of control
GpH7-A5/GpH7-B3 variant G236_18N/GpL16-k0 (antibody, human IgG1, kappa, IgG1, anti-glypican-3; also called He Ab) heavy 1: not shown heavy 2: not shown light: DIVMTQSPLSLPVTPGEPASISCQASESLVHSNRNTYLHWYLQKPGQSPQLLIYKVSNRFSGVPDRFSGSGSGTDFTLKISRVEAEDVGVYYCSQNTHVPPTFGQGTKVEIERTVAAPSVFIFPPSDEQLKSGTASVVCLLNNFYPREAKVQWKVDNALQSGNSQESVTEQDSKDSTYSLSSTLTLSKADYEKHKVYACEVTHQGLSSPVTKSFNRGEC | 37.8 % (control = 100) | 96.4 % (control = 100) | 0.39 | – | – | –
GpH7-A5/GpH7-B3 variant G237_04F/GpL16-k0 (antibody, human IgG1, kappa, IgG1, anti-glypican-3; also called He Ab) heavy 1: not shown heavy 2: not shown light: DIVMTQSPLSLPVTPGEPASISCQASESLVHSNRNTYLHWYLQKPGQSPQLLIYKVSNRFSGVPDRFSGSGSGTDFTLKISRVEAEDVGVYYCSQNTHVPPTFGQGTKVEIERTVAAPSVFIFPPSDEQLKSGTASVVCLLNNFYPREAKVQWKVDNALQSGNSQESVTEQDSKDSTYSLSSTLTLSKADYEKHKVYACEVTHQGLSSPVTKSFNRGEC | 25.3 % (control = 100) | 149 % (control = 100) | 0.17 | – | – | –
GpH7-A5/GpH7-B3 variant G237_10E/GpL16-k0 (antibody, human IgG1, kappa, IgG1, anti-glypican-3; also called He Ab) heavy 1: not shown heavy 2: not shown light: DIVMTQSPLSLPVTPGEPASISCQASESLVHSNRNTYLHWYLQKPGQSPQLLIYKVSNRFSGVPDRFSGSGSGTDFTLKISRVEAEDVGVYYCSQNTHVPPTFGQGTKVEIERTVAAPSVFIFPPSDEQLKSGTASVVCLLNNFYPREAKVQWKVDNALQSGNSQESVTEQDSKDSTYSLSSTLTLSKADYEKHKVYACEVTHQGLSSPVTKSFNRGEC | 25.4 % (control = 100) | 114 % (control = 100) | 0.22 | – | – | –
GpH7-A5/GpH7-B3 variant G237_09D/GpL16-k0 (antibody, human IgG1, kappa, IgG1, anti-glypican-3; also called He Ab) heavy 1: not shown heavy 2: not shown light: DIVMTQSPLSLPVTPGEPASISCQASESLVHSNRNTYLHWYLQKPGQSPQLLIYKVSNRFSGVPDRFSGSGSGTDFTLKISRVEAEDVGVYYCSQNTHVPPTFGQGTKVEIERTVAAPSVFIFPPSDEQLKSGTASVVCLLNNFYPREAKVQWKVDNALQSGNSQESVTEQDSKDSTYSLSSTLTLSKADYEKHKVYACEVTHQGLSSPVTKSFNRGEC | 17.7 % (control = 100) | 223 % (control = 100) | 0.08 | – | – | –

More lines, now with the values ahead:

He/Con_3a [1] | He/Con_2b [2] | He_3a/2b (IIIa/IIb) [3] | He_2aH/2b (IIaH/IIb) (FcγRIIa H [4]) [ratio] | He/Con_2aH (FcγRIIa H [5]) | He/Con_2b (FcγRIIb) | Binder
70.7 % (control = 100) | 110 % (control = 100) | 0.64 | – | – | – | GpH7-A5/GpH7-B3 variant G236_10E/GpL16-k0 (antibody, human IgG1, kappa, IgG1, anti-glypican-3; also called He Ab) heavy 1: not shown heavy 2: not shown light: DIVMTQSPLSLPVTPGEPASISCQASESLVHSNRNTYLHWYLQKPGQSPQLLIYKVSNRFSGVPDRFSGSGSGTDFTLKISRVEAEDVGVYYCSQNTHVPPTFGQGTKVEIERTVAAPSVFIFPPSDEQLKSGTASVVCLLNNFYPREAKVQWKVDNALQSGNSQESVTEQDSKDSTYSLSSTLTLSKADYEKHKVYACEVTHQGLSSPVTKSFNRGEC
24.9 % (control = 100) | 148 % (control = 100) | 0.17 | – | – | – | GpH7-A5/GpH7-B3 variant G237_08L/GpL16-k0 (antibody, human IgG1, kappa, IgG1, anti-glypican-3; also called He Ab) heavy 1: not shown heavy 2: not shown light: DIVMTQSPLSLPVTPGEPASISCQASESLVHSNRNTYLHWYLQKPGQSPQLLIYKVSNRFSGVPDRFSGSGSGTDFTLKISRVEAEDVGVYYCSQNTHVPPTFGQGTKVEIERTVAAPSVFIFPPSDEQLKSGTASVVCLLNNFYPREAKVQWKVDNALQSGNSQESVTEQDSKDSTYSLSSTLTLSKADYEKHKVYACEVTHQGLSSPVTKSFNRGEC
31.9 % (control = 100) | 130 % (control = 100) | 0.25 | – | – | – | GpH7-A5/GpH7-B3 variant G237_06M/GpL16-k0 (antibody, human IgG1, kappa, IgG1, anti-glypican-3; also called He Ab) heavy 1: not shown heavy 2: not shown light: DIVMTQSPLSLPVTPGEPASISCQASESLVHSNRNTYLHWYLQKPGQSPQLLIYKVSNRFSGVPDRFSGSGSGTDFTLKISRVEAEDVGVYYCSQNTHVPPTFGQGTKVEIERTVAAPSVFIFPPSDEQLKSGTASVVCLLNNFYPREAKVQWKVDNALQSGNSQESVTEQDSKDSTYSLSSTLTLSKADYEKHKVYACEVTHQGLSSPVTKSFNRGEC
38.4 % (control = 100) | 111 % (control = 100) | 0.35 | – | – | – | GpH7-A5/GpH7-B3 variant G237_13S/GpL16-k0 (antibody, human IgG1, kappa, IgG1, anti-glypican-3; also called He Ab) heavy 1: not shown heavy 2: not shown light: DIVMTQSPLSLPVTPGEPASISCQASESLVHSNRNTYLHWYLQKPGQSPQLLIYKVSNRFSGVPDRFSGSGSGTDFTLKISRVEAEDVGVYYCSQNTHVPPTFGQGTKVEIERTVAAPSVFIFPPSDEQLKSGTASVVCLLNNFYPREAKVQWKVDNALQSGNSQESVTEQDSKDSTYSLSSTLTLSKADYEKHKVYACEVTHQGLSSPVTKSFNRGEC

Reference: patent US20150344570A1 (published 2015)
